# Measurements reported in article PMC13544220, “Glycemic and bodyweight effects of GIPR coding variation reflect differences in surface expression and intrinsic functional impairment” (Science Advances, 2026).
# Columns and labels:
# Type in all cases: cell-based, human
# [1] = tested on: wild-type and variant SNAP-GIPR; test: Single-concentration GIP cAMP response by HTRF in INS-1 cells; details: Fig S3E, mean
# Protocol: (§1) All variants were tested in parallel on each occasion to control for transfection efficiency differences between experiments.
# [2] = tested on: wild-type and variant SNAP-GIPR; test: Single-concentration GIP cAMP response by HTRF in AD293 cells; details: Fig S3F, HTRF, mean;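 also: ratio to experiment-wide average response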
# Protocol: as §1
# [3] = tested on: wild-type and variant SNAP-GIPR; test: Surface SNAP-GIPR expression (SNAP-tag labelling) in AD293 cells; details: for AD293 Surface: Fig S3E, mean; for Surface SNAP-GIPR expression: sheet Fig 1C;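 as to all read-outs here: scaled to the experimental average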
# Method in brief: (§2)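 Surface GIPR is quantified from wide-field images after labelling intact transfected cells with a membrane-impermeant SNAP probe at 500 nM for 10 min at room temperature. Specific signal, corrected for nontransfected cells, is normalized to the experiment-wide average or to wild-type.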
# [4] = tested on: wild-type and variant SNAP-GIPR; test: Constitutive and agonist-mediated internalization, reversible SNAP-tag labelling, AD293 cells; set-up: key to Internalisation, Vehicle / Internalisation, +GIP / Internalisation, GIP-only: % internalization: residual fluorescence after Mesna vs pre-Mesna; Surface expression: unit not given here; details: Mean; for +GIP internalisation (100 nM) / GIP-specific internalisation (100 nM) / Constitutive internalisation (100 nM) / Surface expression: Fig 4E; for +GIP internalisation (100 nM) / GIP-specific internalisation (100 nM): GIP 100 nM; for Internalisation, +GIP / Internalisation, GIP-only / Internalisation, Vehicle: Fig S4C, AD293
# Method in brief: (§3)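 Surface SNAP-GIPR signal removable by Mesna was tracked by imaging before and 10 min after treatment in pH 8.6 TNE buffer. Internalization is the Mesna-resistant share of specific fluorescence.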
# [5] = tested on: wild-type and variant SNAP-GIPR; test: cADDis cAMP imaging in AD293 cells, ensemble, expression-matched and per decile; details: Fig S3F, cADDis, mean
# Method in brief: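 Transient SNAP-GIPR plus cADDis BacMam in AD293; 24 h; SNAP-Surface AF647 500 nM, 10 min RT; wide-field 10X imaging at 37°C in KRBH/6 mM glucose/0.1% BSA. Cells failing IBMX/FSK response criteria excluded.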
# [6] = tested on: wild-type and variant SNAP-GIPR; test: Constitutive and agonist-mediated internalization, reversible SNAP-tag labelling, INS-1 cells; set-up: key to Internalisation, GIP-only / Internalisation, Vehicle / Internalisation, +GIP: % internalization: residual fluorescence after Mesna vs pre-Mesna; details: Mean; for +GIP internalisation (100 nM) / GIP-specific internalisation (100 nM) / Constitutive internalisation (100 nM): Fig 4G; for +GIP internalisation (100 nM) / GIP-specific internalisation (100 nM): GIP 100 nM; for Internalisation, +GIP / Internalisation, GIP-only / Internalisation, Vehicle: Fig S4C, INS-1
# Method in brief: as §3
# [7] = tested on: wild-type and variant SNAP-GIPR; test: Surface SNAP-GIPR expression (SNAP-tag labelling) in INS-1 cells; details: Fig 4G; Mean
# Method in brief: as §2
# [8] = column repeated, paired with cAMP 100 nM
molecule,measurement,setting,value
"R404H (protein, UniProt P48546 22-466, looked up, variant R404H) Gastric inhibitory …: RAETGSKGQTAGELYQRWERYRRECQETLAAAEPPSGLACNGSFDMYVCWDYAAPNATARASCPWYLPWHHHVAAGFVLRQCGSDGQWGLWRDHTQCENPEKNEAFLDQRLILERLQVMYTVGYSLSLATLLLALLILSLFRRLHCTRNYIHINLFTSFMLRAAAILSRDRLLPRPGPYLGDQALALWNQALAACRTAQIVTQYCVGANYTWLLVEGVYLHSLLVLVGGSEEGHFRYYLLLGWGAPALFVIPWVIVRYLYENTQCWERNEVKAIWWIIRTPILMTILINFLIFIRILGILLSKLRTRQMRCRDYRLRLARSTLTLVPLLGVHEVVFAPVTEEQARGALRFAKLGFEIFLSSFQGFLVSVLYCFINKEVQSEIHRGWHHCRLRRSLGEEQRQLPERAFRALPSGSGPGEVPTSRGLSSGTLPGPGNEASRELESYC",INS-1 cAMP (100 nM),[1],0.9867
same,AD293 100 pM HTRF,[2],0.3628
same,AD293 100 nM HTRF,[2],1.255
same,AD293 Surface,[3]; [8],0.7424
same,AD293 Surface,[3]; paired with cAMP 100 pM,0.7424
same,Surface SNAP-GIPR expression,[3]; replicate 1,0.7731
same,Surface SNAP-GIPR expression,[3]; replicate 2,0.8601
same,Surface SNAP-GIPR expression,[3]; replicate 3,1.364
same,Surface SNAP-GIPR expression,[3]; replicate 4,1.202
same,Surface SNAP-GIPR expression,[3]; replicate 5,0.6596
same,Surface SNAP-GIPR expression,[3]; replicate 6,0.8044
same,Surface SNAP-GIPR expression,[3]; replicate 7,1.014
same,Surface SNAP-GIPR expression,[3]; replicate 8,0.8566
same,Surface SNAP-GIPR expression,[3]; replicate 9,0.836
same,Surface SNAP-GIPR expression,[3]; replicate 10,0.8174
same,Surface SNAP-GIPR expression,[3]; replicate 11,0.6917
same,Surface SNAP-GIPR expression,[3]; replicate 12,0.5756
same,Surface SNAP-GIPR expression,[3]; replicate 13,0.812
same,Surface SNAP-GIPR expression,[3]; replicate 14,0.5735
same,Surface SNAP-GIPR expression,[3]; replicate 15,0.518
same,Surface SNAP-GIPR expression,[3]; replicate 16,0.5844
same,Surface SNAP-GIPR expression,[3]; replicate 17,0.7582
same,Surface SNAP-GIPR expression,[3]; replicate 18,0.6508
same,Surface SNAP-GIPR expression,[3]; replicate 19,0.4867
same,Surface SNAP-GIPR expression,[3]; replicate 20,0.616
same,Surface SNAP-GIPR expression,[3]; replicate 21,0.5336
same,Surface SNAP-GIPR expression,[3]; replicate 22,0.6715
same,Surface SNAP-GIPR expression,[3]; replicate 23,0.7341
same,Surface SNAP-GIPR expression,[3]; replicate 24,0.6837
same,Surface SNAP-GIPR expression,[3]; replicate 25,0.9077
same,Surface SNAP-GIPR expression,[3]; replicate 26,0.65
same,Surface SNAP-GIPR expression,[3]; replicate 27,0.7009
same,Surface SNAP-GIPR expression,[3]; replicate 28,0.5824
same,Surface SNAP-GIPR expression,[3]; replicate 29,0.9349
same,Surface SNAP-GIPR expression,[3]; replicate 30,0.779
same,Surface SNAP-GIPR expression,[3]; replicate 31,0.9227
same,Surface SNAP-GIPR expression,[3]; replicate 32,0.586
same,Surface SNAP-GIPR expression,[3]; replicate 33,0.6419
same,Surface SNAP-GIPR expression,[3]; replicate 34,0.7664
same,Surface SNAP-GIPR expression,[3]; replicate 35,0.5787
same,Surface SNAP-GIPR expression,[3]; replicate 36,0.8557
same,Surface SNAP-GIPR expression,[3]; replicate 37,0.7468
same,Surface SNAP-GIPR expression,[3]; replicate 38,0.7266
same,Surface SNAP-GIPR expression,[3]; replicate 39,0.577
same,Surface SNAP-GIPR expression,[3]; replicate 40,0.6491
same,Surface SNAP-GIPR expression,[3]; replicate 41,0.7544
same,+GIP internalisation (100 nM),[4],0.4112
same,GIP-specific internalisation (100 nM),[4],0.07509
same,Constitutive internalisation (100 nM),[4],0.3361
same,Surface expression,[4],0.7754
same,"Internalisation, +GIP",[4],56.8624
same,"Internalisation, GIP-only",[4],10.8785
same,"Internalisation, Vehicle",[4],45.9839
same,AD293 100 pM cADDis,[5],26.6869
same,AD293 100 nM cADDis,[5],37.59
same,+GIP internalisation (100 nM),[6],0.3918
same,GIP-specific internalisation (100 nM),[6],0.07675
same,Constitutive internalisation (100 nM),[6],0.3151
same,"Internalisation, +GIP",[6],48.5
same,"Internalisation, GIP-only",[6],9.682
same,"Internalisation, Vehicle",[6],38.8183
same,Surface expression,[7],0.8156
"G438S (protein, UniProt P48546 22-466, looked up, variant G438S) Gastric inhibitory …: RAETGSKGQTAGELYQRWERYRRECQETLAAAEPPSGLACNGSFDMYVCWDYAAPNATARASCPWYLPWHHHVAAGFVLRQCGSDGQWGLWRDHTQCENPEKNEAFLDQRLILERLQVMYTVGYSLSLATLLLALLILSLFRRLHCTRNYIHINLFTSFMLRAAAILSRDRLLPRPGPYLGDQALALWNQALAACRTAQIVTQYCVGANYTWLLVEGVYLHSLLVLVGGSEEGHFRYYLLLGWGAPALFVIPWVIVRYLYENTQCWERNEVKAIWWIIRTPILMTILINFLIFIRILGILLSKLRTRQMRCRDYRLRLARSTLTLVPLLGVHEVVFAPVTEEQARGALRFAKLGFEIFLSSFQGFLVSVLYCFINKEVQSEIRRGWHHCRLRRSLGEEQRQLPERAFRALPSGSGPSEVPTSRGLSSGTLPGPGNEASRELESYC",INS-1 cAMP (100 nM),[1],1.306
same,AD293 100 pM HTRF,[2],1.746
same,AD293 100 nM HTRF,[2],1.655
same,AD293 Surface,[3]; [8],1.603
same,AD293 Surface,[3]; paired with cAMP 100 pM,1.603
same,Surface SNAP-GIPR expression,[3]; replicate 1,1.682
same,Surface SNAP-GIPR expression,[3]; replicate 2,1.688
same,Surface SNAP-GIPR expression,[3]; replicate 3,1.832
same,Surface SNAP-GIPR expression,[3]; replicate 4,2.161
same,Surface SNAP-GIPR expression,[3]; replicate 5,1.111
same,Surface SNAP-GIPR expression,[3]; replicate 6,1.49
same,Surface SNAP-GIPR expression,[3]; replicate 7,1.615
same,Surface SNAP-GIPR expression,[3]; replicate 8,1.417
same,Surface SNAP-GIPR expression,[3]; replicate 9,1.842
same,Surface SNAP-GIPR expression,[3]; replicate 10,1.526
same,Surface SNAP-GIPR expression,[3]; replicate 11,1.806
same,Surface SNAP-GIPR expression,[3]; replicate 12,1.746
same,Surface SNAP-GIPR expression,[3]; replicate 13,1.595
same,Surface SNAP-GIPR expression,[3]; replicate 14,2.152
same,Surface SNAP-GIPR expression,[3]; replicate 15,1.581
same,Surface SNAP-GIPR expression,[3]; replicate 16,1.661
same,Surface SNAP-GIPR expression,[3]; replicate 17,1.607
same,Surface SNAP-GIPR expression,[3]; replicate 18,1.471
same,Surface SNAP-GIPR expression,[3]; replicate 19,1.527
same,Surface SNAP-GIPR expression,[3]; replicate 20,1.649
same,Surface SNAP-GIPR expression,[3]; replicate 21,1.401
same,Surface SNAP-GIPR expression,[3]; replicate 22,1.64
same,Surface SNAP-GIPR expression,[3]; replicate 23,1.516
same,Surface SNAP-GIPR expression,[3]; replicate 24,1.737
same,Surface SNAP-GIPR expression,[3]; replicate 25,1.567
same,Surface SNAP-GIPR expression,[3]; replicate 26,1.448
same,Surface SNAP-GIPR expression,[3]; replicate 27,1.549
same,Surface SNAP-GIPR expression,[3]; replicate 28,1.925
same,Surface SNAP-GIPR expression,[3]; replicate 29,1.515
same,Surface SNAP-GIPR expression,[3]; replicate 30,1.373
same,Surface SNAP-GIPR expression,[3]; replicate 31,1.117
same,Surface SNAP-GIPR expression,[3]; replicate 32,1.576
same,Surface SNAP-GIPR expression,[3]; replicate 33,1.347
same,Surface SNAP-GIPR expression,[3]; replicate 34,1.595
same,Surface SNAP-GIPR expression,[3]; replicate 35,1.243
same,Surface SNAP-GIPR expression,[3]; replicate 36,1.381
same,Surface SNAP-GIPR expression,[3]; replicate 37,1.612
same,Surface SNAP-GIPR expression,[3]; replicate 38,1.594
same,Surface SNAP-GIPR expression,[3]; replicate 39,1.863
same,Surface SNAP-GIPR expression,[3]; replicate 40,1.797
same,Surface SNAP-GIPR expression,[3]; replicate 41,1.787
same,+GIP internalisation (100 nM),[4],0.9894
same,GIP-specific internalisation (100 nM),[4],0.334
same,Constitutive internalisation (100 nM),[4],0.6554
same,Surface expression,[4],1.622
same,"Internalisation, +GIP",[4],61.1161
same,"Internalisation, GIP-only",[4],20.3657
same,"Internalisation, Vehicle",[4],40.7504
same,AD293 100 pM cADDis,[5],35.9341
same,AD293 100 nM cADDis,[5],39.48
same,+GIP internalisation (100 nM),[6],0.7615
same,GIP-specific internalisation (100 nM),[6],0.2318
same,Constitutive internalisation (100 nM),[6],0.5297
same,"Internalisation, +GIP",[6],53.475
same,"Internalisation, GIP-only",[6],16.2333
same,"Internalisation, Vehicle",[6],37.2417
same,Surface expression,[7],1.361
